The target in assay [1] is T1, human transferrin receptor 2 (TfR2) overexpressed on BaF3 cells (human, UniProt Q9UP52 1-801).
T1 construct: whole, on cells
T1 sequence (looked up): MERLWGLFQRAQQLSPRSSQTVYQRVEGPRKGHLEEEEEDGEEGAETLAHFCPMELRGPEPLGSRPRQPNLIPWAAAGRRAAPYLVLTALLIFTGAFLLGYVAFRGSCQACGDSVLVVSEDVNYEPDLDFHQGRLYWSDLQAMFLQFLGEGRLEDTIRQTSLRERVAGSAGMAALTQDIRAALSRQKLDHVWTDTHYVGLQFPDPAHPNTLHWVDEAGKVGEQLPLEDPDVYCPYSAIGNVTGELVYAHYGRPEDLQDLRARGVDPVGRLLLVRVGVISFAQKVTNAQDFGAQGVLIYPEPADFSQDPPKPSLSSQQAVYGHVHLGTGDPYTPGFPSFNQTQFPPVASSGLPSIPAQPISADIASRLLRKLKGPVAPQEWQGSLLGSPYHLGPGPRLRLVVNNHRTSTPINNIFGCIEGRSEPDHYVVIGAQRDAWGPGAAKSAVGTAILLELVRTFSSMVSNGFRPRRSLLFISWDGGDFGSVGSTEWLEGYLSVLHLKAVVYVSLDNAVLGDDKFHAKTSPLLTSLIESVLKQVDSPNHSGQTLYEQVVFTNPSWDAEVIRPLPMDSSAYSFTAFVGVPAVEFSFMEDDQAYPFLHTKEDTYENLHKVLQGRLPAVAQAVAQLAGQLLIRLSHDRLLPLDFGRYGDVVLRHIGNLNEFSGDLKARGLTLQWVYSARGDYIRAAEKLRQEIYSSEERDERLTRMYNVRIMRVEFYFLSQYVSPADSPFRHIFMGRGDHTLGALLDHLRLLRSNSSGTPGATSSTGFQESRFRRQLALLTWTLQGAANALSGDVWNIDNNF
Description: FACS on BaF3 cells overexpressing human TfR2.

Assay [2] concerns the target T2, cynomolgus monkey transferrin receptor 1 (TfR1), full length, expressed on cells (cynomolgus monkey, UniProt Q5RDH6 1-760 (Pongo abelii entry)).
T2 construct: also called cyno TfR1; cyTfR
Description: FACS on Ba/F3 cells, Fab supernatant.

Assay [3] has as its target T3, human transferrin receptor 1 (TfR1), full length, expressed on cells (human, UniProt P02786 1-760).
T3 construct: also called human TfR1; huTfR
Description: FACS on Ba/F3 cells, Fab supernatant.

The target of assay [4] is T2, cynomolgus monkey transferrin receptor …. The experiment in a line: FACS on Ba/F3 cells, purified Fab.
The target in assay [5] is T3, human transferrin receptor 1 (TfR1), …. The experiment in a line: FACS on Ba/F3 cells, purified Fab.
In assay [6] the target is T2, cynomolgus monkey transferrin receptor …. Description: FACS on Ba/F3 cells, Fab supernatant. This is another data set of the same source.
The target of assay [7] is T3, human transferrin receptor 1 (TfR1), …. Description: FACS on Ba/F3 cells, Fab supernatant. The source holds these as a separate data set.
For assay [8], the target named is T2, cynomolgus monkey transferrin receptor …. Description: FACS on Ba/F3 cells, Fab supernatant. This is another data set of the same source.
Assay [9] has as its target T3, human transferrin receptor 1 (TfR1), …. The experiment in a line: FACS on Ba/F3 cells, Fab supernatant. This is another data set of the same source.
Assay [10] concerns the target T2, cynomolgus monkey transferrin receptor …. Description: FACS on Ba/F3 cells, purified Fab. This is another data set of the same source.
Assay [11] has as its target T3, human transferrin receptor 1 (TfR1), …. Description: FACS on Ba/F3 cells, purified Fab. This is another data set of the same source.
Assay [12] addresses T4, recombinant human TfR1 extracellular domain, His-tagged (human, UniProt P02786 89-760).
T4 construct: also called Human TfR1 ECD; human TfR1 ECD-His
The experiment in a line: SPR, TfR1 ECD-His captured, Fab injected, 1:1 fit.

For assay [13], the target named is T5, recombinant cynomolgus monkey TfR1 extracellular domain, His-tagged (cynomolgus monkey, UniProt Q5RDH6 87-760 (Pongo abelii entry)).
T5 construct: also called Cyno TfR1 ECD; cyno TfR1 ECD-His
The experiment in a line: SPR, TfR1 ECD-His captured, Fab injected, 1:1 fit.

The target of assay [14] is T6, mouse transferrin receptor (TfR1) (mouse, UniProt Q62351 1-763, limits assumed).
T6 construct: form and assay not described; also called mouse TfR
Description: not described.

From patent US20240158494A1 (Biogen, published 2024) come the findings set out here.

Positions count from the first letter of the chain named. Names and notes keep the numbering of the source.

B1: chimeric ANTIBODY-A mAb (RabANTIBODY-A, bivalent huIgG1) (antibody, V domains shown)
VH: QSLEESGGGLVQPGASLTLTCKASGIDFSSSGYMCWVRQAPGKGLEWIGCIYTYSSNTYYASWAKGRFTISKTSSTTVTLQMTSLTAADTATYFCARGTYGYTGYTYTMGYFSLWGPGTLVTVSS
VL: ELDMTQTPASVEAAVGGTVTIKCQASQNINSYLAWYQQKPGQPPKLLIYRASTLASGVPSRFKGSGSGTEFTLTISDLECADAATYYCQSYYYSGSSNYNAFGGGTELEIL
notes: rabbit variable regions with a human IgG1 framework, bivalent huIgG1; also called RabAB-A
Consider B1, for which, in [1], the binding result was “no binding (tested: 250 nM)”.

B2: TfRANTIBODY-B HC-H4C/LC-L2 (C90S) hIgG1Fab′(1C) (Fab, V domains shown)
VH: QSLVESGGGVVQPGRSLRLSCKASGFSFSNSYWICWVRQAPGKGLEWVGCINTDADSTNYASWARGRFTISKTSSTTVYLQMNSLRAEDTAVYYCARQNNVFDPGYNLWGPGTLVTVSS
VL: ELVLTQSPSTLSASVGDRVTITCRASQNIGSNLAWYQQKPGKAPKLLIYDASKLESGVPSRFSGSGSGTEFTLTISSLQPDDFATYYCQSTVRGGAYGNAFGGGTKVEIKR
notes: also called ANTIBODY-B H4C/L2(C90S); H4C (C90S)/L2
Regarding B2, the EC50 in [2] was 3.3 nM; in [3], 11.3 nM; in assay [4], 1.5 nM; in [5], 7.3 nM.

B3: TfR1 ANTIBODY-B HC-H1C hIgG1 Fab′(1C)/LC-L2 hKappa (Fab, V domains shown)
VH: QSLVESGGGVVQPGRSLRLSCAASGFSFSNSYWICWVRQAPGKGLEWVGCINTDADSTNYADSVKGRFTISKDNSKNTVYLQMNSLRAEDTAVYYCARQNNVFDPGYNLWGQGTLVTVSS
VL: B2 VL with S90C
notes: also called ANTIBODY-B H1C/L2; TfRANTIBODY-B HC-H1C/LC-L2 hIgG1Fab′(1C)
In the case of B3, the EC50 in assay [6] is 2.8 nM; in assay [7], 3.8 nM; in assay [8], 2.8 nM; in assay [9] it was 10.1 nM; in [10] it was 2.3 nM; in assay [11] it was 8.2 nM. For the same molecule, the EC50 in [2] stood at 2.3 nM; in [3], 5.9 nM. In addition, the figures for the Kd in assay [12] and in assay [13] were 6.7 nM and 1.3 nM, respectively. Further, the figures for the koff in assay [12] and in [13] were 0.00115 s⁻¹ and 0.000425 s⁻¹, respectively. Also, the figures for the kon in assay [12] and in assay [13] were 171000 M⁻¹ s⁻¹ and 315000 M⁻¹ s⁻¹, respectively.

B4: TfRANTIBODY-B HC-H1C/LC-L2 (C90S) hIgG1Fab′(1C) (Fab, V domains shown)
VH: B3 VH
VL: B2 VL
notes: also called ANTIBODY-B H1C/L2(C90S)
On to B4, for which the EC50 in assay [2] came out at 4.4 nM; in assay [3] it was 14.9 nM; in assay [4] it was 3.2 nM; in assay [5], 6.1 nM.

B5: TfR1 ANTIBODY-B HC-H3C hIgG1 Fab′(1C)/LC-L2 hKappa (Fab, V domains shown)
VH: B3 VH with D62S, S63W, V64A, K65R, V79L
VL: B2 VL with S90C
notes: also called ANTIBODY-B H3C/L2; TfRANTIBODY-B HC-H3C/LC-L2 hIgG1Fab′(1C)
For B5, the EC50 was determined as 2.6 nM in assay [6]; 6.8 nM in assay [7]; 1.9 nM in assay [10]; 5.5 nM in [11]; 4 nM in assay [2]; 7 nM in [3]. Besides, the values for the Kd in assay [12] and in assay [13] were 7.4 nM and 1.7 nM, respectively. The koff turned out to be 0.00147 s⁻¹ in assay [12] and 0.000608 s⁻¹ in [13]. The figures for the kon in assay [12] and in [13] were 200000 M⁻¹ s⁻¹ and 348000 M⁻¹ s⁻¹, respectively.

B6: TfRANTIBODY-B HC-H1C/LC-L2 (C90T) hIgG1Fab′(1C) (Fab, V domains shown)
VH: B3 VH
VL: B2 VL with S90T
notes: also called ANTIBODY-B H1C/L2(C90T)
In the case of B6, the EC50 in assay [2] came out at 5.4 nM; in assay [3] it was 12.6 nM; in assay [4], 3.2 nM; in [5], 13.6 nM.

B7: TfRANTIBODY-B HC-H4C/LC-L2 (C90T) hIgG1Fab′(1C) (Fab, V domains shown)
VH: B2 VH
VL: B2 VL with S90T
notes: also called ANTIBODY-B H4C/L2(C90T); H4C (C90T)/L2
As for B7, the EC50 was 2.9 nM in [2], 7.7 nM in assay [3], 3.4 nM in assay [4] and 5.1 nM in assay [5].

B8: chimeric ANTIBODY B mAb (RabANTIBODY-B, bivalent huIgG1) (antibody, V domains shown)
VH: QSLEESGGGLVQPEGSLTLTCKASGFSFSNSYWICWVRQAPGKGLEWIGCINTDADSTNYASWARGRFTISKTSSTTVTLQMTSLTAADTASYFCARQNNVFDPGYNLWGPGTLVTVSS
VL: ELVLTQTPASVSEAVGGTVTIKCQASQNIGSNLAWYQQKPGQPPKLLIYDASKLASGVPSRFSGSGSGTEFTLTISDLECADAATYYCQCTVRGGAYGNAFGGGTEVVVK
notes: rabbit variable regions with a human IgG1 framework, bivalent huIgG1; also called rabAB-B
Turning to B8, in assay [1], the binding result is “no binding (tested: 250 nM)”.

B9: TfR1 ANTIBODY-A HC-H2C hIgG4Fab/LC-L0 hKappa (ΔC214) (Fab, V domains shown)
VH: QSLVESGGGLVQPGGSLRLSCAASGIDFSSSGYMCWVRQAPGKGLEWVGCIYTYSSNTYYAASVKGRFTISKTSSTTVYLQMNSLKTEDTAVYYCARGTYGYTGYTYTMGYFSLWGQGTLVTVSS
VL: DIQMTQSPSTLSASVGDRVTITCQASQNINSYLAWYQQKPGKAPKLLIYRASSLESGVPSRFSGSGSGTEFTLTISSLQPDDFATYYCQSYYYSGSSNYNAFGGGTKVEIKR
notes: also called exemplary antibody (ii)
On to B9, for which the binding result in assay [14] was “no binding”.
